Test results from PMC10867769, “Grafting the ALFA tag for structural studies of aquaporin Z” (Journal of Structural Biology: X, 2024).
Values belong to the molecule of their own block, whether it stands above or below them.

How the values were obtained:
[1] = molecular target: octameric (AqpZ-ALFA)4(nB)4 complex (E. coli) (UniProt P60844); assay: cryo-EM structure; AqpZ-ALFA incubated with five-fold molar excess of nB in C8E4, complex purified (StrepTrap, Superdex 200), 10 mg/mL, 5-fold molar excess of 18:1 cardiolipin (TOCDL); prepared at room temperature, grid at 5 °C; D4 symmetry, 1.9 Å
[2] = molecular target: the molecule itself; assay: as above

stoichiometry N [1]: 2
Molecule: octameric (AqpZ-ALFA)4(nB)4 complex (from UniProt P60844 1-227)

B1: AqpZ-ALFA (E. coli aquaporin Z with the ALFA tag grafted onto its C-terminus, flexible linker and Strep-tag II) (other)
chain: MFRKLAAECFGTFWLVFGGCGSAVLAAGFPELGIGFAGVALAFGLTVLTMAFAVGHISGGHFNPAVTIGLWAGGRFPAKEVVGYVIAQVVGGIVAAALLYLIASGKTGFDAAASGFASNGYGEHSPGGYSMLSALVVELVLSAGFLLVIHGATDKFAPAGFAPIAIGLALTLIHLISIPVTNTSVNPARSTAVAIFQGGWALEQLWFFWVVPIVGGIIGGLIYRTLLRASRLEEELRRRLTEPGGGPG
notes: Aquaporin Z (AqpZ), E. coli, UniProt P60844; from the start up to the printed C-terminal residues IYRTLL; the last residues of the natural protein are replaced by the graft; followed by aswshpqfek (Strep-tag II, written as a tag); Tetramer; also called AqpZ-ALFA-St; source: E. coli BL21-A1, purified (octyl glucoside extraction of membranes, StrepTrap, Superdex 200 in C8E4); not shown: Strep-tag …
stoichiometry N [2]: 4
